From paper PMC8287961

Molecular target: KAP1 (UniProt Q13263)
Experiment: GFP-Trap IP from nuclear lysate, coomassie gel
Settings: reference: GFP-HP1β wild type; sites S89,S91

HP1β (from UniProt P83917) GFP-HP1β S89/91A
binding against the reference: weaker
